Reference: IntAct's records for PubMed 10202051

B1: Actin nucleation-promoting factor WAS (Homo sapiens), P42768 (parent)
chain: MSGGPMGGRPGGRGAPAVQQNIPSTLLQDHENQRLFEMLGRKCLTLATAVVQLYLALPPGAEHWTKEHCGAVCFVKDNPQKSYFIRLYGLQAGRLLWEQELYSQLVYSTPTPFFHTFAGDDCQAGLNFADEDEAQAFRALVQEKIQKRNQRQSGDRRQLPPPPTPANEERRGGLPPLPLHPGGDQGGPPVGPLSLGLATVDIQNPDITSSRYRGLPAPGPSPADKKRSGKKKISKADIGAPSGFKHVSHVGWDPQNGFDVNNLDPDLRSLFSRAGISEAQLTDAETSKLIYDFIEDQGGLEAVRQEMRRQEPLPPPPPPSRGGNQLPRPPIVGGNKGRSGPLPPVPLGIAPPPPTPRGPPPPGRGGPPPPPPPATGRSGPLPPPPPGAGGPPMPPPPPPPPPPPSSGNGPAPPPLPPALVPAGGLAPGGGRGALLDQIRQGIQLNKTPGAPESSALQPPPQSSEGLVGALMHVMQKRSRAIHSSDEGEDQAGDEDEDDEWDD

Variants of: B1
Conditions: with wipf1_human WIPF1, O43516
Sequence of wipf1_human WIPF1, O43516 (O43516 whole entry): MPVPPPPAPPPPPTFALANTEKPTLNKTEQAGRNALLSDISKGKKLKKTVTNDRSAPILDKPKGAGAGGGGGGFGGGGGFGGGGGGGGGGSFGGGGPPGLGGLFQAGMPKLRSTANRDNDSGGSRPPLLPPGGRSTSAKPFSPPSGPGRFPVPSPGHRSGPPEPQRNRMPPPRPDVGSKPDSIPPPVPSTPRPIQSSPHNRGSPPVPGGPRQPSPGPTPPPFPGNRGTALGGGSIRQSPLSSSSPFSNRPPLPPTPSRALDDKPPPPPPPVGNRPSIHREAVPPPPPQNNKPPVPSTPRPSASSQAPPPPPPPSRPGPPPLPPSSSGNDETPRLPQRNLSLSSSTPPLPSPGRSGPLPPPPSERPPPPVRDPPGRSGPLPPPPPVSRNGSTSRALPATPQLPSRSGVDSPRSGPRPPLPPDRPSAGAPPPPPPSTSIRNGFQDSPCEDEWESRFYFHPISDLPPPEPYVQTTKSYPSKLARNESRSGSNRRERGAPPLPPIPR

Effect of a mutation on the interaction, decreasing interaction:
R86H
Y107C
A134T
